Experimental data reported in PMC3690454, “14-3-3 Proteins Interact with a Hybrid Prenyl-Phosphorylation Motif to Inhibit G Proteins” (Cell, 2013).
Square brackets hold non-standard residues; d marks the D form. Ends that are not written are not given here. * marks the point of attachment. Geranylgeranyl = CC(C)=CCC/C(C)=C/CC/C(C)=C/CC/C(C)=C/C*; Biotin = O=C1N[C@H]2[C@H](CS[C@H]2CCCCC(=O)*)N1; pT = C[C@@H](OP(=O)(O)O)[C@H](N)C(=O)O; pS = N[C@@H](COP(=O)(O)O)C(=O)O; Ahx = NCCCCCC(=O)O

T1: 14-3-3ζ (Homo sapiens, UniProt P63104)
T1 construct: hexa-His; made in house; host or cells: E. coli BL21(DE3) Star
T1 sequence (P63104 1-245): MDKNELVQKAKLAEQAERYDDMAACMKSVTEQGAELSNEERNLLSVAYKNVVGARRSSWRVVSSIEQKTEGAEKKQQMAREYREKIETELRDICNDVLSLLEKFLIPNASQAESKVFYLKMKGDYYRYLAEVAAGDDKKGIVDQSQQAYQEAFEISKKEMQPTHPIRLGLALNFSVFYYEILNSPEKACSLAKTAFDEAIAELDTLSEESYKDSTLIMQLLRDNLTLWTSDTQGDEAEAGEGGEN

T2: hexa-His-tagged 14-3-3ζ (UniProt P63104 1-245)
T2 construct: 14-3-3 protein zeta; expressed and purified essentially as in Kostelecky et al., 2009; eluted as a dimer of ~60 kDa; the ITC methods call it 'the 14-3-3ζ domain'; source: E. coli BL21(DE3) Star, purified (HisTrap, size-exclusion chromatography)
T2 sequence: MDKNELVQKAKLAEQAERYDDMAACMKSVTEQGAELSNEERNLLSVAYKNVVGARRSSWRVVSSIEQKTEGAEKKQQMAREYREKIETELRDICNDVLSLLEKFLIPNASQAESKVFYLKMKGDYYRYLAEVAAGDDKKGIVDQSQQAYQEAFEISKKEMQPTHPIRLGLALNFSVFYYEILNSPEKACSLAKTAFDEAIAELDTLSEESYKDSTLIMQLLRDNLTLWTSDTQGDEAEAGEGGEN


Assays:
14-3-3ζ [1] = molecular target: T1, 14-3-3ζ; experiment: Isothermal titration calorimetry of Rnd3 C-terminal peptides with 14-3-3ζ; type: binding; conditions: ITC, tested at 15°C and 25°C
Procedure: ITC measurements were carried out using a VP-ITC200 instrument (GE Healthcare). The 14-3-3ζ domain (see Extended Experimental Procedures) was used at 50–60 μM in ITC buffer (50 mM Tris [pH 7.5]), 100 mM NaCl, 1 mM TCEP). Rnd3 C-terminal peptides were solubilized in ITC buffer and used at 500–600 μM. Titrations were carried out at 25°C in triplicate. Each titration was fitted to a simple one-site binding model using the Origin software provided with the instrument. Titrations with nonbinding peptides were carried out at 15°C and 25°C.
GST-14-3-3β protein was expressed as previously reported ([Yaffe et al., 1997]). A hexa-His-tagged version of 14-3-3ζ was expressed and purified essentially as previously reported ([Kostelecky et al., 2009]). In brief, the E. coli strain BL21(DE3) Star (Invitrogen) was transformed with the expression plasmid that was maintained by 34 μg/ml chloramphenicol. E. coli cells were grown to OD600nm of 0.7-0.8 in TB medium at 37°C and protein expression induced by 1 mM IPTG for 5 hr at 30°C. Pelleted cells were suspended in buffer A (25 mM Tris [pH 7.5], 100 mM NaCl, 1 mM EDTA, and 1 mM DTT) and disrupted by sonication. Insoluble material was cleared by high-speed centrifugation and the cleared lysate applied to a 5 ml HisTrap column using an AKTA system (GE Healthcare). The 14-3-3ζ protein was eluted with a linear gradient (0–500 mM) of Imidazole in buffer A. Finally, the protein was subjected to size-exclusion chromatography using a High-Load S200 pg column. As previously described, 14-3-3ζ eluted as a dimer with a molecular weight of ∼60 kDa. The final yield of 14-3-3ζ was 30–40 mg per liter of TB medium.

14-3-3ζ [2] = molecular target: T1, 14-3-3ζ; experiment: Biolayer interferometry (Octet RED96), immobilised biotinylated peptides, 14-3-3ζ in solution; type: binding
Procedure: Biolayer interferometry was carried out using an Octet RED96 instrument (ForteBio). Biotinylated peptides were immobilized on streptavadin-coated biosensors (ForteBio) at a concentration of 1 μg/ml in BI buffer (25 mM Tris, 150 mM NaCl, 0.1% Tween-20), for 300 s. The immobilization typically reached a response level of 2 nm. Association and dissociation curves were obtained through addition of a dilution series of 14-3-3ζ ([…]) for 300 s followed by dissociation in BI buffer for 300 s using the Octet acquisition software. The binding data were fitted using the Octet analysis software.

hexa-His-tagged 14-3-3ζ [3] = molecular target: hexa-His-tagged 14-3-3ζ (UniProt P63104); experiment: ITC; VP-ITC200; 14-3-3ζ at 50–60 μM, Rnd3 peptides at 500–600 μM; 50 mM Tris pH 7.5, 100 mM NaCl, 1 mM TCEP; 25°C, one-site model; non-binding peptides at 15°C and 25°C
hexa-His-tagged 14-3-3ζ [4] = molecular target: T2, hexa-His-tagged 14-3-3ζ; experiment: BLI; Octet RED96; biotinylated peptides immobilised on streptavidin-coated biosensors (1 μg/ml, 300 s); dilution series of 14-3-3ζ for 300 s, dissociation 300 s; BI buffer 25 mM Tris, 150 mM NaCl, 0.1% Tween-20; data of a typical experiment (n ≥ 3); conditions: both partners purified

| Molecule | Kd (hexa-His-tagged 14-3-3ζ [4]) [nM] | kon (hexa-His-tagged 14-3-3ζ [4]) [M⁻¹ s⁻¹] | further results |
| --- | --- | --- | --- |
| DLRKDKAKSC-OH [−P-F] |  |  | binding to 14-3-3ζ (in words) (14-3-3ζ [1]): no binding; Kd (14-3-3ζ [2]; kinetic fit, peptide immobilised at 1 μg/ml, 25 mM Tris, 150 mM NaCl, 0.1% Tween-20, association 300 s, dissociation 300 s, typical experiment (n ≥ 3), NB = no binding): > 4 µM |
| Rap1A+P-GG: phosphorylated Rap1A peptide without the geranylgeranyl modification (EKKKPKKK[pS]C; not fully specified (N-terminus); also: biotinylated) |  |  | affinity for 14-3-3ζ (in words) (14-3-3ζ [2]; Figure 7C): micromolar affinity |
| biotinylated Rnd3 C-terminal peptide, phosphorylated on S240 (+P−F) |  |  | dH (hexa-His-tagged 14-3-3ζ [3]): -5.68 kcal/mol; stoichiometry N (hexa-His-tagged 14-3-3ζ [3]): 0.89 |
| biotinylated Rnd3 C-terminal peptide, phosphorylated on S240 and farnesylated on C241 (+P+F) |  |  | dH (hexa-His-tagged 14-3-3ζ [3]): -2.96 kcal/mol; stoichiometry N (hexa-His-tagged 14-3-3ζ [3]): 0.83 |
| {Biotin-Ahx}-GGDDKKSK[pT]C(Geranylgeranyl) (source: synthetic peptide) | 44.5 | 410000 |  |
| {Biotin-Ahx}-EKKKPKKK[pS]C(Geranylgeranyl) (also called Rap1A+P+GG; source: synthetic peptide) | 23.6 | 1.4e+06 | koff (hexa-His-tagged 14-3-3ζ [4]): 0.034 s⁻¹ |
| {Biotin-Ahx}-PTPIKRGR[pS]C(Geranylgeranyl) (source: synthetic peptide) | 868 | 41000 |  |
| {Biotin-Ahx}-PGKARKKS[pS]C(Geranylgeranyl) (source: synthetic peptide) | 170 | 320000 |  |
| {Biotin-Ahx}-TNTERRSK[pS]C(Geranylgeranyl) (also called RPRG; source: synthetic peptide) | 95 | 240000 | koff (hexa-His-tagged 14-3-3ζ [4]): 0.022 s⁻¹ |
